Measured values published in US20250346651A1 (EMORY UNIVERSITY, published 2025).

T1: recombinant MBP-E2 fusion protein (Human papillomavirus type 16, UniProt P03120 1-365, limits assumed)
T1 construct: The legend says only 'MBP-E2'
T1 sequence: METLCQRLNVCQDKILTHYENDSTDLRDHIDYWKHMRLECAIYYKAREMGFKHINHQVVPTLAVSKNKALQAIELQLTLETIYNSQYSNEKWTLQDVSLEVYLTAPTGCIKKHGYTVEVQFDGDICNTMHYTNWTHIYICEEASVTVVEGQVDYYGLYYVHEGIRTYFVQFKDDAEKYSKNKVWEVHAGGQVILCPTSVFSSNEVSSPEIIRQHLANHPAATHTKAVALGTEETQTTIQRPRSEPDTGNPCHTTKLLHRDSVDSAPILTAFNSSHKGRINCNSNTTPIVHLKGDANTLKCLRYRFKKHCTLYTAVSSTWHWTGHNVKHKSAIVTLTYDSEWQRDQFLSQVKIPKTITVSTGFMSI

B1: 22-E2G5 (antibody, V domains shown)
VH: EVQVVESGGGLVQPGGSLRLSCAASGFTVNSKFMTWVRQAPGTGLECVSIIYNDGSTYYADSVKGRFTISRDNSKNTLYLQMNRLRPEDTAVYFCARRAFFGGNDDFDIWGQGTLVTVSS
VL: EIVLTQSPGTLSLSPGDRATLSCRAGQSVSSSFLAWYQQRPGQPPRLLIYGASSRATDIPDRFSGSGSGTDFTLTISRLEPEDFAVYYCHQYSSSLPTFGPGTKVEIK
B2: 22-E2C5 (antibody, V domains shown)
VH: QVQLVQSGAEVKKPGASVKVSCRTSGYSFTRYYIHWVRQSPGRGLEWMGIIDPNNGGTTSAKTLLGKVSMTRDTSTSTAHLELTSLGPEDTAVYYCAILYSNGLEVWDYWGQGTLVTVSS
VL: SHELTQPPSVSVSPGQTAQITCSGDTLPDNYAYWYQQRSGQAPVLVVYEDNKRPSGIPERFSGSSSGTMATLTISGAQVEDDADYYCYSSDRSNNFFGGGTKLTVLS
B3: 22-E2B2 (antibody, V domains shown)
VH: QVQLVQSGTEVKKPGASVRVSCKASGYTFTEYYLHWVRQAPGQGLEWMGRINPNSGNTNYAQKFNGRVTMTSDTSVNLAYLEVSGLTSDDTAIYYCTRDDSGAFVYWGQGTLVTVSS
VL: ETVLTQSPATLSLSPGERATLSCRSSQVISSYLAWFQQKPGQAPRLLIYDTSNRATGIPARFSGSGSGTDFTLTISSLEPEDFAVYYCQQRTNWPPREKITFGPGTKVDIK
B4: 22-E2F7 (antibody, V domains shown)
VH: QVQLVQSGTEVKKPGASVRVSCKASGYSFTEYYLHWVRQAPGQGLEWMGRINPKSGNTNYAQKLNGRVTMTSDTSVNVAYLEVSGLTSDDTAIYYCTRDDNGAFVYWGQGTLVTVSS
VL: ETVLTQSPATLSLSPGERATLSCRSSQVISSYLAWFQQKPGQAPRLLIYDTSNRATGIPARFSGSGSGTDFTLTISSLEPEDFAVYYCQQRINWPPREKITFGPGTKVDIR
B5: 22-1B10 (antibody, V domains shown)
VH: QVQLVQSGSELRKPGASVTVSCKASGYTFSNHDMSWVRQAPGQGLEWMGWINSNTGNPTYAQGFTGRFVFSLDTSVSTAYLQISSLKSEDTAVYYCAKGGGICSGSRCYSGWFDSWGKGTLVAVSS
VL: QLVLTQSPSASASLGASVKLTCTLSSGHSGYAIAWHQQQPEKGPRYLMKLNSDGTHTKGDGIPDRFSGSSSGAERYLTISSLQSEDEADYYCQTWGTGIQVFGTGTKVTILG
B6: 22-E2D4 (antibody, V domains shown)
VH: QVQLVQSGAEVKRPGSSVKVSCKASGDNFNNYAFHWVRQAPGQGLEWMGRTIPFLGLTSYSPNIQGRVSISADKSTATAFMEMSGLRSEDTAMYYCASSIRLGDFLYRASYYYSSPLDVWGQGTTVTVSS
VL: EVVLTQSPGTLSLSPGDRATLTCRAGQTISNSYLAWYQQKPGQAPRLLISGVSSRATGIPDRFSGSGSGTDFTLTISRLEPEDFAVYYCQLYGNSPSFGQGTRLEIK
B7: 21-1E2 (antibody, V domains shown)
VH: DVQLAESGGGLVQPGDSLTLSCAASGFIFNNYFMSWVRQTPGKGLEWVSGISANGERSIYADSVKGRFTISRDNSKKTVSLQMNSLSAEDTAIYYCARAGCDSTSCYARVGWFGPWGQGILVTVSS
VL: DVVMTQSPDSLAVSLGERATLNCKSRESVLYTTNNRNYLAWYQQKPGQPPKLLIYWASTRESGVPDRFSGSGSGTDFSLTISSLQAEDVAVYYCQQYLTTPPTFGQGTKVEIK
B8: 21-1H3 (antibody, V domains shown)
VH: QVQLVQSGAEVKKPGSSVKVSCKASGGTFANSGVAWVRQAPGQGLEWMGGLIPVFGAADYAQKFRGRLSITADESSTTAFMELDSLRSDDTAVYYCAKDHFTYNKYFSWFDPWGQGTLVIVSS
VL: QTVVTQEPSLSVSPGGTVTLTCALSSGSVSTSYYPSWYQQTPGQAPRTLIYSTNLRSSGVPDRFSGSILGNKAALTITGAQADDECDYYCVLFMGSGISMFGGGTKLTVL

Each binder was assayed against T1, recombinant MBP-E2 fusion protein (assay: ELISA, plate coated with MBP-E2, purified antibody).
Procedure: ELISA plates coated with recombinant MBP-E2 fusion protein were incubated with purified human monoclonal antibodies.

Row | Binder | binding result
1 | B1 | binds
2 | B2 | binds
3 | B3 | binds
4 | B4 | binds
5 | B5 | binds
6 | B6 | binds

These binders were tested against T2, recombinant MBP-E6 fusion protein (Human papillomavirus type 16, UniProt P03126 1-158) (assay: ELISA, plate coated with MBP-E6, purified antibody).
T2 construct: The legend says only 'MBP-E6'
T2 sequence (P03126 whole entry, the tested form may be a part): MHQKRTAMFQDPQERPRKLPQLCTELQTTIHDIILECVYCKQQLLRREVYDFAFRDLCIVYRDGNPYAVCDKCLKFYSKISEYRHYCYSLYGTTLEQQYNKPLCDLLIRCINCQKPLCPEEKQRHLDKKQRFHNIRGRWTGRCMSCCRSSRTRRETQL
Procedure: ELISA plates coated with recombinant MBP-E6 fusion protein were incubated with purified human monoclonal antibodies.

Row | Binder | binding result
7 | B7 | binds
8 | B8 | binds
